How the values were obtained:
fully oxidized LDL [1] = molecular target: T1, fully oxidized LDL (UniProt P04114 28-4563, oxidatively modified with copper for 20 hours at 37 C (sites not given)); experiment: phage ELISA on oxidized LDL
T1 construct: Lipoprotein particle; also called fuOxLDL; FoxLDL

[2] = molecular target: T2, F-AGE (AGEs prepared by fructose treatment of BSA) (bovine, UniProt P02769 25-607, glycated by fructose, 37 C for 12 weeks (sites not given)); experiment: SPR single cycle kinetics, biotinylated sRAGE on a streptavidin (SA) chip, F-AGE as analyte
T2 construct: also called F-AGEs; fructose treated BSA

[3] = molecular target: T3, LDL (unmodified low density lipoprotein) (UniProt P04114 28-4563); experiment: direct ELISA, lowest antigen amount at which detection was possible
T3 construct: Lipoprotein particle, not a pure protein; also called LDLs; unmodified LDL
Method: (§1) Antigen recognition activity of a purified single chain antibody was evaluated by direct ELISA. LDLs, acetylated LDLs, partially oxidized LDLs, and fully oxidized LDLs were used as antigens. 0.05 to 10 μg/ml of antigen solution was added to a polystyrene 96-well microwell plate at 100 μl/well and allowed to adsorb overnight at 4° C. The plate was washed three times with PBS (200 μl/well). Blocking buffer (0.25% BSA/PBS) was added at 200 μl/well. The mixture was left standing for 2 hours at room temperature. After the plate was washed three times with PBS (200 μl/well), 2.5 μg/ml/PBS single chain antibody was added at 100 μl/well and reacted for 1 hour at room temperature. The plate was washed five times with PBS (200 μl/well) and anti-His-HRP antibody diluted 1000-fold with blocking buffer was added at 100 μl/well and reacted for 1 hour at room temperature. After washing the plate five times with PBS (200 μl/well), 3,3′,5,5′-tetramethyl-benzidine (TMB) was added at 50 μl/well. The luminescence was examined and 150μ/well of 1N HCl was added to suspend the reaction. Subsequently, the absorbance at 450 nm for each well of the plate was measured (FIG. 11).
(§2) The detection limit was calculated as the detection limit at the lowest concentration at which detection was possible in measured specimens at different dilution levels.

acetylated LDL = molecular target: T4, acetylated LDL (UniProt P04114 28-4563, acetylated (sites not given)); experiment: as above
T4 construct: Lipoprotein particle; also called AcLDL; Ac LDLs
Method: as §1, §2

partially oxidized LDL = molecular target: T5, partially oxidized LDL (UniProt P04114 28-4563, oxidatively modified with copper for 4 hours at 37 C (sites not given)); experiment: as above
T5 construct: Lipoprotein particle; also called moOxLDL; moLDL
Method: as §1, §2

fully oxidized LDL [4] = molecular target: T1, fully oxidized LDL; experiment: as above
Method: as §1, §2

T1 sequence (P04114 28-4563): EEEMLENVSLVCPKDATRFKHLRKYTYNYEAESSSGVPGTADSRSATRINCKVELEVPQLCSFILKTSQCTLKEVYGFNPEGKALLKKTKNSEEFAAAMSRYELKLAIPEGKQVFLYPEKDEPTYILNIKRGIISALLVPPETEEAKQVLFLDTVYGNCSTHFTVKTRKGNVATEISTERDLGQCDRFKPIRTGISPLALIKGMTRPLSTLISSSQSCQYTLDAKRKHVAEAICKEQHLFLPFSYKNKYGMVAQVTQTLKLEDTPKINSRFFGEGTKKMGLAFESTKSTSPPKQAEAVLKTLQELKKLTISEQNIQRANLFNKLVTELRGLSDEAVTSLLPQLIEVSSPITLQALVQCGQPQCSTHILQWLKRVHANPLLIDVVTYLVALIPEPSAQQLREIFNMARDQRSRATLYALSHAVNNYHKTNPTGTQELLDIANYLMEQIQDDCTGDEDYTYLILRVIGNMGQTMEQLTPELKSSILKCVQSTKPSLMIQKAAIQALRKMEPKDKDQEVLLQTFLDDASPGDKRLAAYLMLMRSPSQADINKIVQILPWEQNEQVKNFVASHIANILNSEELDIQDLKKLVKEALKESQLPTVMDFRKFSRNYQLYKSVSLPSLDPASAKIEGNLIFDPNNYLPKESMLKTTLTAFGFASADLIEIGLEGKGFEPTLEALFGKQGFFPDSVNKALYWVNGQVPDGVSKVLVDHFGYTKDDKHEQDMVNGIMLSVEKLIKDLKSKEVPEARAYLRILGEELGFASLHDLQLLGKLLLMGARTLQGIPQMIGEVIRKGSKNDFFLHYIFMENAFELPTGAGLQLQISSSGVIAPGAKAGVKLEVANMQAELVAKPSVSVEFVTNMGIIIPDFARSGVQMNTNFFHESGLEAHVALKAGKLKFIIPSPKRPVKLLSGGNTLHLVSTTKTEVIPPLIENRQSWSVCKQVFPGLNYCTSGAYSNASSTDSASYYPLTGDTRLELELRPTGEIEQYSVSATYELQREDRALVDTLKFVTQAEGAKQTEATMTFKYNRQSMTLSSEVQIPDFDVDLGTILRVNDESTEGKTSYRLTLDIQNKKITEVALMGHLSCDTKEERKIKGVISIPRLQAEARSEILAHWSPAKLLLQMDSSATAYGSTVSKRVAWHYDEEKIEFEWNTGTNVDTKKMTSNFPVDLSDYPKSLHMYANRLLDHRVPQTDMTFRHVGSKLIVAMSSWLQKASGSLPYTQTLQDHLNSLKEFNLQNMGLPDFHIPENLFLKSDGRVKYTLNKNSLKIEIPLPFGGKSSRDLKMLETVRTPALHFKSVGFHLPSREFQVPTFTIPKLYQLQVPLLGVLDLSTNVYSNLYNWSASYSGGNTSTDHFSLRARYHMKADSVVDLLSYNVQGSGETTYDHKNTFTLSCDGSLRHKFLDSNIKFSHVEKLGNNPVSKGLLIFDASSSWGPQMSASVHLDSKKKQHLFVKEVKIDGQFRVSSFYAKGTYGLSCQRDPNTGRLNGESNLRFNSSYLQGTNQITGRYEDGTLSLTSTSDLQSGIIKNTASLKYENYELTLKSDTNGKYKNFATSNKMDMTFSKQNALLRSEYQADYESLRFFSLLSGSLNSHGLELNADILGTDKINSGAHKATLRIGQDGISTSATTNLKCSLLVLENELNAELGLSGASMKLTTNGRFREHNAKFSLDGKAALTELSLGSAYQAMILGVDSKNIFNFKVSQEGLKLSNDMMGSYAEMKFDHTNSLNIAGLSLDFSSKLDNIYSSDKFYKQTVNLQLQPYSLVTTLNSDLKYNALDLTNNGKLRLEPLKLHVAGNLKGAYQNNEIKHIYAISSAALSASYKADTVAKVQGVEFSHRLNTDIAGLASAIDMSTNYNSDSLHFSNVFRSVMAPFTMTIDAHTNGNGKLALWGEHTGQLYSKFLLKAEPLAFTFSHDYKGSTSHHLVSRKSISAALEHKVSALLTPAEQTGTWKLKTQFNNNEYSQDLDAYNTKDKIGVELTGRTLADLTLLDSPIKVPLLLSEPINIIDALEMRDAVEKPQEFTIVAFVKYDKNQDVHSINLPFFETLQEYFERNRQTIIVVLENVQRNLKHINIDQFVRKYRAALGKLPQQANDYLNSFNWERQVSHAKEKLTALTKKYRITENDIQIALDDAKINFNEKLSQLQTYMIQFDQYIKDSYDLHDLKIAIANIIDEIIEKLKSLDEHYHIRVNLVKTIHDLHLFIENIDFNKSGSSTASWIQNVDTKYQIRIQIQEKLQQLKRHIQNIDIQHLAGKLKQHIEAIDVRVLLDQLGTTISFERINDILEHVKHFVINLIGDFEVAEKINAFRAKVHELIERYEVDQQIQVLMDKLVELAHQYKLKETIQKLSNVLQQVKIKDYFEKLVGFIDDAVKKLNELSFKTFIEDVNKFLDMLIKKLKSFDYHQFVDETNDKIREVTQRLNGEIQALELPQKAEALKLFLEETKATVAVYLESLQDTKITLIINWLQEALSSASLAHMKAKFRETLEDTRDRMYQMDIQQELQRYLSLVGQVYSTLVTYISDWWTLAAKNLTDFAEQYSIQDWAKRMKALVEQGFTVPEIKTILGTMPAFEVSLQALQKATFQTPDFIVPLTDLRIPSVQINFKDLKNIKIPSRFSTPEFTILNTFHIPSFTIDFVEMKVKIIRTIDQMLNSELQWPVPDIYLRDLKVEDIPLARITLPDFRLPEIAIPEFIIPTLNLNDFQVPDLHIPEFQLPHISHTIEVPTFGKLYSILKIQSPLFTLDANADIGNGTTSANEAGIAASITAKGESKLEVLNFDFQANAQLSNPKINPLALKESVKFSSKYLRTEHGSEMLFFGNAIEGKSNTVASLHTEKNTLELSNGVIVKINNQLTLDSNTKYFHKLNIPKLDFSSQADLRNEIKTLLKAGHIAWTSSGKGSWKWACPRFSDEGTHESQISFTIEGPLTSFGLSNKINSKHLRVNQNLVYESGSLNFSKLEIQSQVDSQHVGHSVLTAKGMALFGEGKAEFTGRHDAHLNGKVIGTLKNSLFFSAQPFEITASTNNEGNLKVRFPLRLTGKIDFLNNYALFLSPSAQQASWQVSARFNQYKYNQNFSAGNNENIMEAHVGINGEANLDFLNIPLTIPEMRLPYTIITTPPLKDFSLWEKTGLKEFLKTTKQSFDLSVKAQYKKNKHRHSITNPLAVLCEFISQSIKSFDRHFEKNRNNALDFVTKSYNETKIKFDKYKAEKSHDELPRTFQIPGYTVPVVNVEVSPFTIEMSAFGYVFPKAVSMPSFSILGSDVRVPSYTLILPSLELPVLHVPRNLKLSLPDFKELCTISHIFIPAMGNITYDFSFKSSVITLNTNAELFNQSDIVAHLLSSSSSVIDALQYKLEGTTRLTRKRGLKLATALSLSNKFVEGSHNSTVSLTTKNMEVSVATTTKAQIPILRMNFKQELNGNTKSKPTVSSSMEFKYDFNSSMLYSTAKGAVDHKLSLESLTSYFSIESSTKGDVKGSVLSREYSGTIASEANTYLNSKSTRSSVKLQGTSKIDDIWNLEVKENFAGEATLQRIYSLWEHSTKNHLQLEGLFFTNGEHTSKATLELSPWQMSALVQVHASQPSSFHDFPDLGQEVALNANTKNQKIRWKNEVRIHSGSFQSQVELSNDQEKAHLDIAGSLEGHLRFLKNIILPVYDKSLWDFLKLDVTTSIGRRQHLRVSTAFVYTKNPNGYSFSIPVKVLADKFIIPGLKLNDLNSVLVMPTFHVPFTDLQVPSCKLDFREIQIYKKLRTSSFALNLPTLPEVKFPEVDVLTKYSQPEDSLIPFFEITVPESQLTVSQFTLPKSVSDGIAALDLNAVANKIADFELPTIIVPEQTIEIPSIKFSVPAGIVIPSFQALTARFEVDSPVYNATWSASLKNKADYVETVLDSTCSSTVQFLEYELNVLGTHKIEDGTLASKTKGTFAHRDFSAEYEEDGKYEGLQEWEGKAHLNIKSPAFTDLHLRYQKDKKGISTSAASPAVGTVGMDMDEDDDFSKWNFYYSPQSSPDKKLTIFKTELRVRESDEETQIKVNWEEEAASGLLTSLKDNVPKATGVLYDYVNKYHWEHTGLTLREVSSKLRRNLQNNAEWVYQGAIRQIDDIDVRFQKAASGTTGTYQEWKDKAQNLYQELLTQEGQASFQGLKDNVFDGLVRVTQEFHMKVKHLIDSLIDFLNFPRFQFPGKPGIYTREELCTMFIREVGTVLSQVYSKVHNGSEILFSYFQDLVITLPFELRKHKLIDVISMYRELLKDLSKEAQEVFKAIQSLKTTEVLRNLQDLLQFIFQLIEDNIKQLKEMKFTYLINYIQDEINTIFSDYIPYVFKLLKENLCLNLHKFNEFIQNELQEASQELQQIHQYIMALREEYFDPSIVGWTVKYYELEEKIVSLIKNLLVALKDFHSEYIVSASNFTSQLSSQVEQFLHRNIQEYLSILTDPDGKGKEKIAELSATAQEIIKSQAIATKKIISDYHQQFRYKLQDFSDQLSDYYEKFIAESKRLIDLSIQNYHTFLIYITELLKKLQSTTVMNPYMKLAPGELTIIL
T2 sequence (P02769 25-607 limits assumed): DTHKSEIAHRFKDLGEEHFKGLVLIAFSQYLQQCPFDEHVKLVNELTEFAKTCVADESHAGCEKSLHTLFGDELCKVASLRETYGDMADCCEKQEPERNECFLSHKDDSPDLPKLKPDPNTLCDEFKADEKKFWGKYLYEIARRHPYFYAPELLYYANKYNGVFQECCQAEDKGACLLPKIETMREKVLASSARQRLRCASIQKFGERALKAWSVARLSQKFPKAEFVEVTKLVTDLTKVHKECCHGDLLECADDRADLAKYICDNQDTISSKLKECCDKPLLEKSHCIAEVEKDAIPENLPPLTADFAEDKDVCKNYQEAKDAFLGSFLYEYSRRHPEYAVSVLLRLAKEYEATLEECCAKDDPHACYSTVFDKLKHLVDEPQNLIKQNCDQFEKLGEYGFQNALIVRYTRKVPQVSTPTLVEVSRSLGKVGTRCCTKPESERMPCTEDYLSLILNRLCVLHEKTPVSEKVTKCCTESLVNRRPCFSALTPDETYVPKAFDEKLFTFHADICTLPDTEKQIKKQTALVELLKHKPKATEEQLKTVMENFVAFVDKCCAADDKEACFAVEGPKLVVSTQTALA
T3 sequence (P04114 28-4563 limits assumed): as the sequence (P04114 28-4563) above

B1: single chain antibody γ+κ 40, pCANTAB5E clone 40 (phage presented and soluble forms) (scFv)
scFv: MAQVQLVQSGVELRKPGDSVKVSCKASGYSVNTHGMSWVRQAPGQGLEWLGRISSYIGLTKFAQKFQDRVTLTTDTSTNTAYLEMRSLKSDDTAVYFCGRDDYEYDAFDVWGQGTMVTVSSGGGGSGGGGSSGGGSEIVLTQSPATLSVSPGERATLSCRTTESVTDSQLAWYQQKPGQAPRLLIYGPSTRATGIPDRFSGSGSGTDFTLTISGLEPEDFAVYYCQQRNSWYTFGQGTKLEIKR
notes: not shown: C-terminal E tag from pCANTAB5E
B1 was tested, and the A450 (fully oxidized LDL [1]) was at least 0.6 A450.

B2: E. coli form biotinylated sRAGE (Comparative Example 2) (receptor)
chain: AQNITARIGEPLVLKCKGAPKKPPQRLEWKLNTGRTEAWKVLSPQGGGPWDSVARVLPNGSLFLPAVGIQDEGIFRCQAMNRNGKETKSNYRVRVYQIPGKPEIVDSASELTAGVPNKVGTCVSEGSYPAGTLSWHLDGKPLVPNEKGVSVKEQTRRHPETGLFTLQSELMVTPARGGDPRPTFSCSFSPGLPRHRALRTAPIQPRVWEPVPLEEVQLVVEPEGGAVAPGGTVTLTCEVPAQPSPQIHWMKDGVPLPLPPSPVLILPEIGPQDQGTYSCVATHSSHGPQESRAVSISIIEPGEEGPTAGSGLNDIFEAQKIEWHE
notes: Not glycosylated; expressed in Origami B (DE3) together with a biotin ligase; also called E. coli form sRAGE; purified soluble biotinylated RAGE; not shown: His tag present at the N-terminus
Binder B2 has a Kd [2] of 280 nM.

B3: single chain antibody γ+κ 19, pCANTAB5E clone 19 (phage presented and soluble forms) (scFv)
scFv: MAEVQLVESGAEVKNPGASVKVSCKASGYTLTGYYMHWVRQAPGQGLEWMGGIIPMYGTPTYAPRFQGRVTFTADYSTNTVYMELRSLRSEDTAVFYCARQADSASYLDYWGQGTLVTVSSGGGGSGGGGSGGGGSDVVMTQSPGTLSLSPGERATLSCRASQSLDSSYLAWYQQKPGRAPRLLIYGASDRDTGIPDRFSGSGSGTDFTLTISRLEPEDFAVYYCQQYGRSRTFGQGTKLEIKR
notes: as for B1
For B3, the A450 (fully oxidized LDL [1]) was at least 0.6 A450.

B4: single chain antibody γ+κ 5 expressed from pET-22b(+) in E. coli BL21 (DE3), refolded and purified (scFv)
scFv: MAQVQLQQSGPGLVKPSQTLSLTCAISGDSVSSRDAAWNWIRQSPSRGLEWLGRTYYRSEWYTDYAVSLESRLTVNPDTSRNQFSLQLNSVTPEDTAVYLCARGSSWGHAPAFFDYWGQGTLVTVSSGGGGSGGGGSGGGGSDIQMTQSPSSLSASVEDRVAITCRASQSVSTYVAWYQQKPGKAPKLLISQASSLENGVPSRFSGSGSGTDFTLTISSLQPEDFATYYCQQYTTYPYTFGQGTKLEIKR
notes: Human scFv (VH gamma - linker - V kappa) from a spleen library; detected through its His tag with anti-His-HRP; also called clone No. 5; purified single chain antibody; not shown: C-terminal His tag from pET-22b(+) (XhoI cloning)
For B4, the detection limit [3] was 5 ng/100 µl well, the detection limit (acetylated LDL) was 10 ng/100 µl well and the detection limit (partially oxidized LDL) was 10 ng/100 µl well. For the same binder, the detection limit (fully oxidized LDL [4]) was 20 ng/100 µl well.

B5: single chain antibody γ+κ 5, pCANTAB5E clone 5 (phage presented and soluble forms) (scFv)
scFv: MAQVQLQQSGPGLVKPSQTLSLTCAISGDSVSSRDAAWNWIRQSPSRGLEWLGRTYYRSEWYTDYAVSLESRLTVNPDTSRNQFSLQLNSVTPEDTAVYLCARGSSWGHAPAFFDYWGQGTLVTVSSGGGGSGGGGSGGGGSDIQMTQSPSSLSASVEDRVAITCRASQSVSTYVAWYQQKPGKAPKLLISQASSLENGVPSRFSGSGSGTDFTLTISSLQPEDFATYYCQQYTTYPYTFGQGTKLEIKR
notes: the phage-presented and the soluble form are kept under one id, the assay field tells which was used; not shown: C-terminal E tag from pCANTAB5E (phage form: fused to the phage coat protein)
With B5 the A450 (fully oxidized LDL [1]) was at least 0.6 A450.

B6: single chain antibody γ+κ 12, pCANTAB5E clone 12 (phage presented and soluble forms) (scFv)
scFv: MAQVQLQQSGPGLVKPSQTLSLTCDISGDSISTNGAAWNWIRQSPSRGLEWLGRTFYRSKWYNDYAVSVKSRMIINPDTSKNQFSLQLSSVTPEDTAVYYCARVACSGGTCLDGIDVWGQGTTVTVSSGGGGSGGGGSGGGGSDIVMTQSPSSLSASVGERVTITCRASQAIRNDLGWYQQKPGKAPKLLVYSASNLQSGVPSRFSGSGSGTDFTLTISSLQPEDFATYYCQQYHSYPRTFSQGTKLEIKR
notes: as for B1
With B6 the A450 (fully oxidized LDL [1]) was at least 0.6 A450.

B7: single chain antibody γ+κ 96, pCANTAB5E clone 96 (phage presented and soluble forms) (scFv)
scFv: MAEVQLVESGAEAKKPGESLKISCKGSGYSFTTNWIGWVRQLPGKGLDWMGIIYPDDSDTRYSPSFQGQVTISADKSISTAYLQWNSLKASDTAMYYCARRQWGSFDLWGQGTMVTVSSGGGGSGGGGSGGGGSEIVLTQSPATLSLSPGERATLSCRASQSVSSFLAWYQQKPGQAPRLLIYGASSRATGIPDRFSGSGSGTDFTLTINRLEPEDFAVYYCQYYGSSGTFGQGTKVEIKR
notes: as for B1
B7 gave an A450 (fully oxidized LDL [1]) of at least 0.6 A450.

B8: silkworm form biotinylated sRAGE (silkworm coexpressing BirA, biotin feed, Example 19) (receptor)
chain: GHHHHHHHHHHSSGHIDDDDKHMAQNITARIGEPLVLKCKGAPKKPPQRLEWKLNTGRTEAWKVLSPQGGGPWDSVARVLPNGSLFLPAVGIQDEGIFRCQAMNRNGKETKSNYRVRVYQIPGKPEIVDSASELTAGVPNKVGTCVSEGSYPAGTLSWHLDGKPLVPNEKGVSVKEQTRRHPETGLFTLQSELMVTPARGGDPRPTFSCSFSPGLPRHRALRTAPIQPRVWEPVPLEEVQLVVEPEGGAVAPGGTVTLTCEVPAQPSPQIHWMKDGVPLPLPPSPVLILPEIGPQDQGTYSCVATHSSHGPQESRAVSISIIEPGEEGPTAGSRSGAGTPVTAPLAGTIWKVLASEGQTVAAGEVLLILEAMKMETEIRAAQAGTVRGIAVKAGDAVAVGDTLMTLAGTKLGPEQKLISEEDLNSAVDHHHHHH
modifications: a single biotin on the biotinylation tag; silkworm form N-linked sugar chains at two sites
notes: also called Biotin tag sRAGE; Biotin-RAGE
B8 was tested, and the Kd [2] was 220 nM.
